This is an account of results in a protein production outcome set (Wang et al. 2014).

The series is described as follows: label from the status in PepcDB records.
In the case of “MTATLQVTIVVGYLLVALAIGLLAYRVTERAAEDFYLASRTFGTAVLLFTVFATLLSAFTFFGGPDNAYAFGPEWILVMGLMDGLIFAILWYLIGYKQWLLGQRHGYVTLGEMFGDRFGSTGVRALVAVVSLFWLFPYVMLQQIGAGGALAALTDGVVPFWAGASLITGFMILYVVLAGMRGIAWTDTLQGAFMLCMVWAALVWVLVAVDGGVSTINAGLTESSPEFFALGSDFYTPGTMLTFAISIAFGVAMFPQVNQRFFTAASETVLKRSFALWPLLVLLLFVPAFLLGTWAQGLGLQADVGAGESILPILLDTYTPAWFAALVIAGAIAAMMSSSDSMLLSGSSYFTRDVYRPLVDDGITERQEDRLGRIGVAVFAIAALAASVWAEAEAFGAVAVGSVLVEIGDLAFGGFAQLTVPVLVALYWRGTTKQGLVAGILLPQAVYLAFNFLPATEVGSAMLFSETYLGWGISIYCLLLGLVATVVVSAATTKADSERPALFFESLRRG”, the protein production result is “failed”.
Then “MNRARTNDRRRAGDGPRRSRSAGRPQNSGRRPAAAPQGGEFALPKTITPALPAVETFAELDLPARMLAALGDQGVTEPFPIQAATLPNSLAGRDVLGRGRTGSGKTLAFGLALLARTAGKRAEPRRPLALVLVPTRELAQQVTDALTPYARAVGLRSATVVGGMSIGRQAGALRSGAEVVVATPGRLKDLIDRGDCALGDVTITVLDEADQMTDMGFMPQVTALLDQVAADGQRMLFSATLDRNVDKLVRRYLTDPVVHSVDPSAGAVTTMEHHVLHVQDEDKQRATIEIAARDGRVIMFLDTKHRVDRLVKHLLKSGVRAAGLHGGKSQPQRTRTLAQFKDGQVTALVATNVAARGIHVDNLDLVVNVDPPGDHKDYLHRGGRTARAGESGSVVTLVTPDQRREMTRLMSLAGITPQVTPVRSGEAELARITGAQTPSGVPVVITAPVVERPRRAAAGAGSPSRGRRGRSAQGRSGGQGTGTQARTGAAQSRTAGQSRTAAQGRPTGESPRRRPRRQSTGGSTGSAA”, with “failed”.
Turning to “YRSKGEYHELLANHVAELSKLQNVLYADNRYAILLIFQAMDAAGKDSAIKHVMSGVNPQGCQVYSFKHPSATELEHDFLWRTNCVLPERGRIGIFNRSYYEEVLVVRVHPEILEMQNIPHNLAHNGKVWDHRYRSIVSHEQHLHCNGTRIVKFYLHLSKEEQRKRFLERIDDPNKNWKFSTADLEERKFWDQYMEAYESCLQETSTKDSPWFAVPADDKKNARLIVSRIVLDTLESLNLKYP”, the protein production result is on record as “failed”.
Then “MAPDASTALAAREKVQQILNAACTGNLEFLKNVAKQLDEGKDLTKTVESIKDANKRGALHFAAREGQTEICRYLLEELKLNADAKDETGDTPLVHAARQGQIETVKYLLEQGADPNIASELGATALHHAAGTGEIELLKELLSRGVPVDSESESGTPLIWAAGHDQKNAVEVLLEHNANPNAETEDNITPLLSAVAAGSLSCLELLVKAGAKANVFAGGATPLHIAADIGNLELINCLLKAGADPNQKDEEGNRPLEVAAARDNRKVVEILFPLTTKPETVSDWTVDGILAHMESNKEQEENSNKAKSQETGIKKDLPVVSPEAKAKAAEAKARGQDAFHRKDFQMAIDAYTQAIDFDPTDHTLFSNRSLCWLRLGQAEHALSDAKACRELNPDWPKGCFREGAALRLLQRFDEAANAFYEGVLLSPESKELIDAFREAVDAGRKFHGKGEVKAKS”, with “failed”; and “MAETSALPTGFGELEVLAVGMVLLVEALSGLSLNTLTIFSFCKTPELRTPCHLLVLSLALADSGISLNALVAATSSLLRRWPYGSDGCQAHGFQGFVTALASICSSAAIAWGRYHHYCTRSQLAWNSAVSLVLFVWLSSAFWAALPLLGWGHYDYEPLGTCCTLDYSKGDRNFTSFLFTMSFFNFAMPLFITITSYSLMEQKLGKSGHLQVNTTLPARTLLLGWGPYAILYLYAVIADVTSISPKLQMVPALIAKMVPTINAINYALGNEMVCRGIWQCLSPQKREKDRTK”, with “failed”; and “MDVSFEFEHYQVRLIKSSDAVTIANYFMRNRHHLAPWEPKRSHAFFTPEGWKQRLLQLVELHKHNLAFYFVVVDKNEHKIIGTVSYSNITRFPFHAGHVGYSLDSEYQGKGIMRRAVNVTIDWMFKAQNLHRIMAAYIPRNEKSAKVLAALGFVKEGEAKKYLYINGAWEDHILTSKINDDWKPE”, with “failed”.
“MVGFKPTDVPPTAAVKFIGAGTAACIADLFTFPLDTAKVRLQIQGESKAVHMKTASYKGVFGTISTMVKMEGPKSLYNGLAAGLQRQMSFASVRIGLYDSVKQFYTKGSEHAGIGSRLAAGCTTGAMAVAVAQPTDVVKVRFQAQANSSANRRYKGTMDAYRTIAREEGMRGLWKGTVPNITRNAIVNCTELVTYDLIKDSILKANIMTDNLPCHFTSAFGAGFCTTVIASPVDVVKTRYMNSAKGQYTSALNCALTMFRKEGPRAFYKGFMPSFLRLGSWNVVMFVTYEQLKRAMMSAQRSREAPF”: the protein production entry is listed as “failed”.
In the case of “MKQKSQMETRFVKPLSCLTLSIITTIGILPPATAQETSPAKSACEQVLSNAEQKPLTKQVQKLAQFADPQQERSQMIQQANALFSQGDLPGAEENLCKFLKKYSDDAFGHFQLGNVFFRGKKVEAAISAYQEAIRLRSRYAVAYNALGIVYASQSRWSEAIVQYQKALEINPDYGDALTNVALALWQTNKKDEALASLEKALNIFKKQNRNEKANQVEQLLQRIKNSDDNLS” it was “failed”.
In the case of “MCTKNETKPLPSFIEERLNFHIQDLIKSNENQKHLVLGKRPSENAVVMQSNDYLSLSHNELIQKAHRDAISERDDNVVMSAIFLQDDQSKPAFEHQLATFVGMESCLLSQSGWAANIGLLQTICAPNLPVYIDFFAHMSLWEGARTAGAQIHPFMHNNMNHLRKQIQRHGAGIIVVDSVYSTIGTIAPLRAIYEMAKEFDCGLVVDESHSLGTHGPEGSGLLQKLGLTQMVDFVTVSLAKTFAYRAGAILGPNKLAQSLPFVAYPAIFSSTVLPQEVVRLEKTLEVIKAADDKRECLFKRAKELAIGLKRIGFNIRSESQIIALECGSERNTERVRDFLEERDVFGAVFCRPATGRNKNIIRFSVNADMTAQQVDHVLSACQEAFDHPDLEFV” it was “not failed”.
Take “MALKATIYKADLNIANMDSHHYADYQLTLALHPSETIERLMVRILAFARFADENLQFTKDLFETDEPALWQKDLTGQLEQWIELGQPSEDKLKKASARCKHVVVVTYGQQVDEWWKRNNKVKTLSNVEVWQLAPETTSQLEKLCERTMQLQLNVMDGEWTLLNDHEQVDVSWTKLH”: the protein production result was “failed”.
On to “MKKKSLIILSIIVLIFVCITLYLTREHIMVFYKLITNGEVVKSYLERFGPWAAVIFFVFQILQVVIFFIPGEVIQAAGGYIFGALGGTLLSFFGIAVGSAILFYICQKFGKKLVQRFVPKDMYDKLEKILNSPKFKLILVILFFLPGAPKDSLIMVCALSNITIGHFIIFSMIGRIPALVASSFMGANLAEGNIVGVIIIGVIALIACALGVIFRKDVFKYMEKL”, for which the protein production result is given as “failed”.
With “MATETQIRIGVMGCADIARKVSRAIHLAPNATISGVASRSLEKAKAFATANNYPESTKIHGSYESLLEDPEIDALYVPLPTSLHVEWAIKAAEKGKHILLEKPVAMNVTEFDKIVDACEANGVQIMDGTMWVHNPRTALLKEFLSDSERFGQLKTVQSCFSFAGDEDFLKNDIRVKPGLDGLGALGDAGWYAIRATLLANNFELPKTVTAFPGAVLNEAGVILSCGASLSWEDGRTATIYCSFLANLTMEITAIGTKGTLRVHDFIIPYKETEASFTTSTKAWFNDLVTAWVSPPSEHTVKTELPQEACMVREFARLVGEIKNNGAKPDGYWPSISRKTQLVVDAVKESVDKNYQQISLSGR”, the protein production entry is recorded as “not failed”.
For the sequence “MKLVWSPETASKAYIDTVKSCENLETPDAAELIAAMAAGWNVKLIVETWSEGDAIASSIGLNVASKHANAKHICIVQNSRSESAYLQAIQESSSPLNFPETIVAEEPGKAMKKLQGVDFLVVDWRNKEFAAAALKNAAFGNRGAVVVCRNGYSSLRRVLRDRKVVRTVTLPVTGGIEIAHVAARNSGKSGNNKRRWITHVDQRSGEEHVFSI”, the protein production result is “failed”.
Then “MMAPPSQVQGRLSSSMNKSLALLTVTLLLGGCQSLIHKTPDGTPPVEDTAVETKAKPEKYGSFSEDSLYSLLVAELAGQRNRFDIALSNYVVQAQKTRDPGVSERAFRIAEYLGADQEALDTSLLWARSAPDNLDAQRAAAIQLARAGRYEESMVYMEKVLNGQGDTHFDFLALSAAETDPDTRAGLLQSFDHLLKKYPNNGQLLFGKALLLQQDGRPDEALTLLEDNSASRHEVAPLLLRSRLLQSMKRSDEALPLLKAGIKEHPDDKRVRLAYARLLVEQNRLDDAKAEFAGLVQQFPDDDDLRFSLALVCLEAQAWDEARIYLEELVERDSHVDAAHFNLGRLAEEQKDTARALDEYAQVGPGNDFLPAQLRQTDVLLKAGRVDEAAQRLDKARSEQPDYAIQLYLIEAEALSNNDQQEKAWQAIQEGLKQYPEDLNLLYTRSMLAEKRNDLAQMEKDLRFVIAREPDNAMALNALGYTLADRTTRYGEARELILKAHKLNPDDPAILDSMGWINYRQGKLADAERYLRQALQRYPDHEVAAHLGEVLWAQGRQGDARAIWREYLDKQPDSDVLRRTIKRLTGAETP”, with “failed”.
In the case of “MSRVHNRALSAAELQSFGDELDAIRARVLSQVGAADARYIRRIVAAVRWTGVAGRALLFLGAFVHSVLIPAWIAGVLLLALSKILENMELGHNVMHGQYDWMGDPQLNGNTYEWDIVATGDNWRKTHNFKHHTYTNVRGMDDDIGYGLLRIFPEQRWRPFYLLQPFIAVVFALLFEWGVAIQDLRLGRWFAGKMKAAELRASFLPVGRKMGRQMLKDYIVFPLLAGPFFLTVLLGNLAANVLRSIWTFVIIFCGHFTADAEVFPKESIRNESRGHWYLRQLRGSSNLTGGKLMNVLSGNLSHQIEHHFYPDLPANRYAQIAVEVKQVCARYGQHYNTGSLPRQFGQVMWRIVRHAFPSRPKPVRQGSGALQSA” it was “failed”; in that of “MVLKRKGLLIILDGLGDRPIKELNGLTPLEYANTPNMDKLAEIGILGQQDPIKPGQPAGSDTAHLSIFGYDPYETYRGRGFFEALGVGLDLSKDDLAFRVNFATLENGIITDRRAGRISTEEAHELARAIQEEVDIGVDFIFKGATGHRAVLVLKGMSRGYKVGDNDPHEAGKPPLKFSYEDEDSKKVAEILEEFVKKAQEVLEKHPINERRRKEGKPIANYLLIRGAGTYPNIPMKFTEQWKVKAAGVIAVALVKGVARAVGFDVYTPEGATGEYNTNEMAKAKKAVELLKDYDFVFLHFKPTDAAGHDNKPKLKAELIERADRMIGYILDHVDLEEVVIAITGDHSTPCEVMNHSGDPVPLLIAGGGVRTDDTKRFGEREAMKGGLGRIRGHDIVPIMMDLMNRSEKFGA”, “not failed”; in that of “MTAQIRLAEPADLNDDTLRARAVAAARGDQRFDVLITGGTLVDVVTGELRPADIGIVGALIASVHEPASRRDAAQVIDAGGAYVSPGLIDTHMHIESSMITPAAYAAAVVARGVTTIVWDPHEFGNVHGVDGVRWAAKAIENLPLRAILLAPSCVPSAPGLERGGADFDAAILADLLSWPEIGGIAEIMNMRGVIERDPRMSGIVQAGLAAEKLVCGHARGLKNADLNAFMAAGVSSDHELVSGEDLMAKLRAGLTIELRGSHDHLLPEFVAALNTLGHLPQTVTLCTDDVFPDDLLQGGGLDDVVRRLVRYGLKPEWALRAATLNAAQRLGRSDLGLIAAGRRADIVVFEDLNGFSARHVLASGRAVAEGGRMLVDIPTCDTTVLKGSMKLPLRMANDFLVKSQGAKVRLATIDRPRFTQWGETEADVKDGFVVPPEGATMISVTHRHGMAEPTTKTGFLTGWGRWNGAFATTVSHDSHNLTVFGGNAGDMALAANAVIGTGGGMAVASEGKVTAILPLPLSGLVSDAPLEEVARAFEDLREAVGKVVEWQPPYLVFKACFGATLACNIGPHQTDMGIADVLTGKVMESPVIEVLG”, “failed”.
